In US20240301052A1 (LANOVA MEDICINES DEVELOPMENT, published 2024):
Where a chain is given by its changes, count along the chain named. Where two headings read alike, the source gives them in different places. One block for each binder: values may come before it.

Legend:
human SLC34A2 [1] = biological target: T1, human SLC34A2 (human, UniProt O95436 1-690); assay: FACS, OVCAR3 cells
T1 construct: whole, on cells; also called human solute carrier 34 A2; NaPi2b
T1 sequence (looked up): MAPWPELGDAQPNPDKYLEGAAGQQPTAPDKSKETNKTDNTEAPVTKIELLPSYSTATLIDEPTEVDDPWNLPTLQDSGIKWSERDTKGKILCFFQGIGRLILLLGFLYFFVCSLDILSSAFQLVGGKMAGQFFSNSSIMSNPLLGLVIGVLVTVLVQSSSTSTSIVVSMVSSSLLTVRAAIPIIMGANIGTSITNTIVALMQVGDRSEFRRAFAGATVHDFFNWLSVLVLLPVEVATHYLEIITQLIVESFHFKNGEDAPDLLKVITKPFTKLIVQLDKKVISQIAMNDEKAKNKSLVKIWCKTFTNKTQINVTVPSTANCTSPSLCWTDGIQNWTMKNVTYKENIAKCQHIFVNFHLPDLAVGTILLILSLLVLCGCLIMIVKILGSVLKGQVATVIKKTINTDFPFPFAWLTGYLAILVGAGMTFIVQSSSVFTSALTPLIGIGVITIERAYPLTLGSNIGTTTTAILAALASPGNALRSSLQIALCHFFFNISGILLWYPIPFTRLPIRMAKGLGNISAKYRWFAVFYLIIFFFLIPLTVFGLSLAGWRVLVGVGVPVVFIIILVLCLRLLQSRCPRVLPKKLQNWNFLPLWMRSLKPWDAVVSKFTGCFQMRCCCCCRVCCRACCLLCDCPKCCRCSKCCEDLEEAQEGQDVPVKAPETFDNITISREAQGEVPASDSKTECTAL

human SLC34A2 [2] = biological target: T1, human SLC34A2; assay: FACS, RMG-1 cells
Method: (§1) In another testing, cell based binding of hu Abs on human SLC34A2 expressing cells were assessed using flow cytometry. Briefly, the HEK293/H_SLC34A2, OVCAR3 and RMG-1 cells were incubated with hu Abs. After incubation at 4° C. for 60 minutes, the cells were washed with FACS buffer twice, then stained with fluorescent conjugated secondary antibody at 4° C. for 30 minutes. After that the cells were washed twice and analyzed by flow cytometry.

human SLC34A2 [3] = biological target: T1, human SLC34A2; assay: FACS, OVCAR3 cells; remark: listed apart in the source
Method: as §1

human SLC34A2 [4] = biological target: T1, human SLC34A2; assay: cell-based or functional assay
human SLC34A2 [5] = biological target: T1, human SLC34A2; assay: FACS, HEK293/human SLC34A2 cells
Method: as §1

Rhesus SLC34A2 = biological target: T2, Rhesus SLC34A2 (Rhesus, UniProt F7HDA3 1-690); assay: FACS, HEK293/Rhesus SLC34A2 cells
T2 construct: whole, on cells
T2 sequence: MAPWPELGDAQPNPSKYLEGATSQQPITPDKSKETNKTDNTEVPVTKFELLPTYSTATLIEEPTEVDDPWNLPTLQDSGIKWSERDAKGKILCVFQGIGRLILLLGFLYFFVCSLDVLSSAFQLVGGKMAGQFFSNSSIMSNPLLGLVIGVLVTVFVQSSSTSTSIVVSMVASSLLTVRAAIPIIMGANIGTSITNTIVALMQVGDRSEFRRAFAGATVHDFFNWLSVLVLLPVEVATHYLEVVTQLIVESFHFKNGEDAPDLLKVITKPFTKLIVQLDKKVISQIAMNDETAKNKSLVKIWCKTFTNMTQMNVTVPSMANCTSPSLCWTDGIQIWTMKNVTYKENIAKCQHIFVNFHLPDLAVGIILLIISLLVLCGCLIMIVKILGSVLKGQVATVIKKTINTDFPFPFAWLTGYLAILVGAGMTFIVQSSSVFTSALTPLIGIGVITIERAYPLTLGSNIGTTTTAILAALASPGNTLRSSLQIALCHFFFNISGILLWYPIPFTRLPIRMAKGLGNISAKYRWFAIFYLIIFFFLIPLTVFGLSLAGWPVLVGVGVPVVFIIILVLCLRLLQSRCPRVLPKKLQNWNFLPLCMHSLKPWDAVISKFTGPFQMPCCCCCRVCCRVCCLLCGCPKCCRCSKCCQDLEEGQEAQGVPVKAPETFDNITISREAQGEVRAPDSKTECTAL

human SLC34A2 [6] = biological target: T1, human SLC34A2; assay: FACS, OVCAR3 cells; remark: listed apart in the source

B1: 91C9F1.p1.z8 hIgG1 (antibody, V domains shown)
VH: QVQLVQSGAEVKKPGSSVKVSCKTSGFFFTEYIIHWVRQAPGQGLEWIGGIIPNNDVTNYKQNFRGRVTLTADKSTSTAYMELSSLRSEDTAVYYCARWRNAYYSAMDSWGQGTTVTVSS
VL: DIVVTQSPSSLSTSVGDRVTITCTASQDVGTAVAWYQQKPGKSPKLLIYWASTRHTGVPERFTGSGSGTDFTLTISSVQPEDVATYFCQQYRTSPLTFGVGTKLELK
notes: humanized hIgG1
- EC50 (human SLC34A2 [1]): 2.13 nM
- Top (MFI) (human SLC34A2 [1]): 35700 MFI

B2: 91C9F1.p1.z12 hIgG1 (antibody, V domains shown)
VH: B1 VH with K12V, A40S, V68A
VL: B1 VL
notes: humanized hIgG1
- EC50 (human SLC34A2 [1]): 1.77 nM
- Top (MFI) (human SLC34A2 [1]): 34500 MFI

B3: 91C9F1.p1.z3 hIgG1 (antibody, V domains shown)
VH: B1 VH with T24A, I48M, L70I, K74E
VL: B1 VL with V3Q, L104V, L106I
notes: humanized hIgG1
- EC50 (human SLC34A2 [1]): 4.04 nM
- Top (MFI) (human SLC34A2 [1]): 35500 MFI

B4: 91C9F1.p1.z4 hIgG1 (antibody, V domains shown)
VH: B1 VH with T24A, I48M, L70I, K74E
VL: B1 VL
notes: humanized hIgG1
- EC50 (human SLC34A2 [2]): 3.22 nM
- Top (human SLC34A2 [2]): 9820 MFI
- EC50 (human SLC34A2 [1]): 1.12 nM
- Top (MFI) (human SLC34A2 [1]): 34600 MFI
- EC50 (human SLC34A2 [3]): 2.71 nM
- Top (human SLC34A2 [3]): 20200 MFI
- ADCC reporter EC50 (human SLC34A2 [4]): 3.14 nM
- ADCC reporter Top (MFI) (human SLC34A2 [4]): 137000 MFI
- EC50 (human SLC34A2 [5]): 1.12 nM
- Top (human SLC34A2 [5]): 34600 MFI
- EC50 (Rhesus SLC34A2): 3.2 nM
- Top (MFI) (Rhesus SLC34A2): 6720 MFI

Next, values leading:

- EC50 (human SLC34A2 [1]): 3.78 nM
- Top (MFI) (human SLC34A2 [1]): 34200 MFI
B5: 91C9F1.p1.z1 hIgG1 (antibody, V domains shown)
VH: B1 VH with T24A, I48M, L70I, K74E
VL: DIQMTQSPSSLSASVGDRVTITCTASQDVGTAVAWYQQKPGKVPKLLIYWASTRHTGVPSRFSGSGSGTDFTLTISSLQPEDVATYYCQQYRTSPLTFGGGTKVEIK
notes: humanized hIgG1

- EC50 (human SLC34A2 [2]): 40.6 nM
- Top (human SLC34A2 [2]): 13200 MFI
- EC50 (human SLC34A2 [6]): 9.23 nM
- Top (MFI) (human SLC34A2 [6]): 30200 MFI
- EC50 (human SLC34A2 [3]): 9.23 nM
- ADCC reporter EC50 (human SLC34A2 [4]): 1.47 nM
- ADCC reporter Top (MFI) (human SLC34A2 [4]): 122000 MFI
- EC50 (human SLC34A2 [5]): 7.12 nM
- Top (human SLC34A2 [5]): 37000 MFI
- EC50 (Rhesus SLC34A2): 4.7 nM
- Top (MFI) (Rhesus SLC34A2): 10300 MFI
B6: 63A11D5B4.p1.z15 hIgG1 (antibody, V domains shown)
VH: QVQLQQSGAEVVKPGASVKMSCKTSGYTFITYNMHWVKQAPGQGREWIGAIYPGSGDTSYNQKFKGRATLTADKSTSTAYMELSSLRSEDTAVYYCSISTIITTGAVDYWGQGTSVTVSS
VL: DIQMTQSPSSLSTSVGDRVTITCKASQDVGTAVAWYQQKPGQSPKLLIYWTSTRHTGVPDRFSGSGSGTDFTLIIRSLQPEDVATYFCQQYSRIPLTFGGGTKVEIK
notes: humanized hIgG1

- EC50 (human SLC34A2 [1]): 2.72 nM
- Top (MFI) (human SLC34A2 [1]): 37000 MFI
B7: 91C9F1.p1.z9 hIgG1 (antibody, V domains shown)
VH: B1 VH with K12V, A40S, V68A
VL: B5 VL
notes: humanized hIgG1

- EC50 (human SLC34A2 [1]): 3.32 nM
- Top (MFI) (human SLC34A2 [1]): 34500 MFI
B8: 91C9F1.p1.z2 hIgG1 (antibody, V domains shown)
VH: B1 VH with T24A, I48M, L70I, K74E
VL: B5 VL with A13T, V43S, S60E, Y87F
notes: humanized hIgG1
